In PMC8461307, “FHR-5 Serum Levels and CFHR5 Genetic Variations in Patients With Immune Complex-Mediated Membranoproliferative Glomerulonephritis and C3-Glomerulopathy” (Frontiers in Immunology, 2021):

Target: T1, purified C3b (UniProt P01024 23-667; P01024 749-1663)
T1 construct: complement C3 beta chain, as in C3b; complement C3b alpha' chain (C3 alpha chain without C3a); also called C3b fragment; source: bought: Merck
Experiment: SPR; ProteOn XPR36; recombinant FHR-5 variants amine-coupled on a GLC chip at 4,200-4,600 RU; C3b in serial dilutions as analyte in DPBS with 0.005% Tween-20, 50 µl/min; ovalbumin channel subtracted; bivalent analyte model, KD = kd/ka
Conditions: both partners purified

T1 sequence (P01024 23-667, chain 1 of 2): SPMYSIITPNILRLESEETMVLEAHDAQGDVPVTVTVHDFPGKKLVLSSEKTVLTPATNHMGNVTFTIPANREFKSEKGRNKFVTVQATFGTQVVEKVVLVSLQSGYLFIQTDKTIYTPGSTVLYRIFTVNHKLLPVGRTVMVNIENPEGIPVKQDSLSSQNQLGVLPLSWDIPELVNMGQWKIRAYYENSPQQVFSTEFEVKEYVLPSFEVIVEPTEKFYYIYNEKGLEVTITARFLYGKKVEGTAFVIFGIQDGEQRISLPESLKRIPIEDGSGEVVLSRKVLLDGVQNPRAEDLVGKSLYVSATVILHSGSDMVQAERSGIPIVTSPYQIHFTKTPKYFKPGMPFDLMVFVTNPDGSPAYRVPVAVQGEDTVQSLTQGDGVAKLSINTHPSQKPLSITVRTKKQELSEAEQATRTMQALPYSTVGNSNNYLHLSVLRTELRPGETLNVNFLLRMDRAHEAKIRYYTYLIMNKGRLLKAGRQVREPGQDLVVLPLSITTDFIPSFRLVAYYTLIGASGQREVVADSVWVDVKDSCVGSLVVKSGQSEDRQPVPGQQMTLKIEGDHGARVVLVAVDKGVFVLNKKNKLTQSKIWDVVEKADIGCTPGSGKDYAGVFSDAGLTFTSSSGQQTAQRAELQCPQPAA
T1 sequence (P01024 749-1663, chain 2 of 2): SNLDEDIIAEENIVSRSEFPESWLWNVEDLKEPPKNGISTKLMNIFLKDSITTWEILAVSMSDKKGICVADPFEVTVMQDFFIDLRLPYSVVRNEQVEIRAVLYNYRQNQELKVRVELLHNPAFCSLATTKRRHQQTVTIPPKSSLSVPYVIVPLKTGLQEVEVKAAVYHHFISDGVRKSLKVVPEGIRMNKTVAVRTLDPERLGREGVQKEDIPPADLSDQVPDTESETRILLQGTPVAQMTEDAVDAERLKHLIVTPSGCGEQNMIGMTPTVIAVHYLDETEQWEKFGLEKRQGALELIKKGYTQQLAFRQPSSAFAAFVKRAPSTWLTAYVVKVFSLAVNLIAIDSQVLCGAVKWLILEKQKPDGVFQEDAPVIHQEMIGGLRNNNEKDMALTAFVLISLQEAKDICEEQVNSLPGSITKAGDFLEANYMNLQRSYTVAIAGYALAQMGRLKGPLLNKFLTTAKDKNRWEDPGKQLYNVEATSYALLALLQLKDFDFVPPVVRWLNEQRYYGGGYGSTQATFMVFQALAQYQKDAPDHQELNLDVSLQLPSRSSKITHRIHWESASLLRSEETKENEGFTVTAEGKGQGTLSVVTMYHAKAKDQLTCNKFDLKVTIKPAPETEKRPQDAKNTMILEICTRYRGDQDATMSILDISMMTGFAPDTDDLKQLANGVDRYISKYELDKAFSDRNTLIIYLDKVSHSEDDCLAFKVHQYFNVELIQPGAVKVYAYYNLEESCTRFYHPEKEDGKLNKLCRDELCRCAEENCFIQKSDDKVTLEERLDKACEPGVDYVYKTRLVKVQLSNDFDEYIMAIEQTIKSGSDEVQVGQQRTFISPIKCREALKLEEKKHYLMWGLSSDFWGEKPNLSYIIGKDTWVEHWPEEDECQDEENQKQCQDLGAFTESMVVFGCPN

Binder | Kd [µM]
recombinant FHR-5 G278S (natural protein, human, UniProt Q9BXR6 19-569, looked up, complement Factor H-related protein 5 (FHR-5), human; amplified from the wtCFHR5 vector with a mutagenic primer; numbered from the ATG translation initiation site; Same construct as m1 with the patient variation G278S) EGTLCDFPKIHHGFLYDEEDYNPFSQVPTGEVFYYSCEYNFVSPSKSFWTRITCTEEGWSPTPKCLRMCSFPFVKNGHSESSGLIHLEGDTVQIICNTGYSLQNNEKNISCVERGWSTPPICSFTKGECHVPILEANVDAQPKKESYKVGDVLKFSCRKNLIRVGSDSVQCYQFGWSPNFPTCKGQVRSCGPPPQLSNGEVKEIRKEEYGHNEVVEYDCNPNFIINGPKKIQCVDGEWTTLPTCVEQVKTCGYIPELEYSYVQPSVPPYQHGVSVEVNCRNEYAMIGNNMITCINGIWTELPMCVATHQLKRCKIAGVNIKTLLKLSGKEFNHNSRIRYRCSDIFRYRHSVCINGKWNPEVDCTEKREQFCPPPPQIPNAQNMTTTVNYQDGEKVAVLCKENYLLPEAKEIVCKDGRWQSLPRCVESTAYCGPPPSINNGDTTSFPLSVYPPGSTVTYRCQSFYKLQGSVTVTCRNKQWSEPPRCLDPCVVSEENMNKNNIQLKWRNDGKLYAKTGDAVEFQCKFPHKAMISSPPFRAICQEGKFEYPICE | 20.5
recombinant wild-type Factor H-related protein 5 (FHR-5WT) (natural protein, human, UniProt Q9BXR6 19-569, looked up, complement Factor H-related protein 5 (FHR-5), human; variations are numbered from the ATG translation initiation site; Secreted into the Sf9 supernatant; also called wild-type FHR-5; wtCFHR5) EGTLCDFPKIHHGFLYDEEDYNPFSQVPTGEVFYYSCEYNFVSPSKSFWTRITCTEEGWSPTPKCLRMCSFPFVKNGHSESSGLIHLEGDTVQIICNTGYSLQNNEKNISCVERGWSTPPICSFTKGECHVPILEANVDAQPKKESYKVGDVLKFSCRKNLIRVGSDSVQCYQFGWSPNFPTCKGQVRSCGPPPQLSNGEVKEIRKEEYGHNEVVEYDCNPNFIINGPKKIQCVDGEWTTLPTCVEQVKTCGYIPELEYGYVQPSVPPYQHGVSVEVNCRNEYAMIGNNMITCINGIWTELPMCVATHQLKRCKIAGVNIKTLLKLSGKEFNHNSRIRYRCSDIFRYRHSVCINGKWNPEVDCTEKREQFCPPPPQIPNAQNMTTTVNYQDGEKVAVLCKENYLLPEAKEIVCKDGRWQSLPRCVESTAYCGPPPSINNGDTTSFPLSVYPPGSTVTYRCQSFYKLQGSVTVTCRNKQWSEPPRCLDPCVVSEENMNKNNIQLKWRNDGKLYAKTGDAVEFQCKFPHKAMISSPPFRAICQEGKFEYPICE | 5.26
recombinant FHR-5 R356H (natural protein, human, UniProt Q9BXR6 19-569, looked up, complement Factor H-related protein 5 (FHR-5), human; amplified from the wtCFHR5 vector with a mutagenic primer; histidine instead of arginine at position 356, a variation found in patients; numbered from the ATG translation initiation site; Same construct as m1 with the patient variation R356H) EGTLCDFPKIHHGFLYDEEDYNPFSQVPTGEVFYYSCEYNFVSPSKSFWTRITCTEEGWSPTPKCLRMCSFPFVKNGHSESSGLIHLEGDTVQIICNTGYSLQNNEKNISCVERGWSTPPICSFTKGECHVPILEANVDAQPKKESYKVGDVLKFSCRKNLIRVGSDSVQCYQFGWSPNFPTCKGQVRSCGPPPQLSNGEVKEIRKEEYGHNEVVEYDCNPNFIINGPKKIQCVDGEWTTLPTCVEQVKTCGYIPELEYGYVQPSVPPYQHGVSVEVNCRNEYAMIGNNMITCINGIWTELPMCVATHQLKRCKIAGVNIKTLLKLSGKEFNHNSRIHYRCSDIFRYRHSVCINGKWNPEVDCTEKREQFCPPPPQIPNAQNMTTTVNYQDGEKVAVLCKENYLLPEAKEIVCKDGRWQSLPRCVESTAYCGPPPSINNGDTTSFPLSVYPPGSTVTYRCQSFYKLQGSVTVTCRNKQWSEPPRCLDPCVVSEENMNKNNIQLKWRNDGKLYAKTGDAVEFQCKFPHKAMISSPPFRAICQEGKFEYPICE | 5.6
